Data taken from patent US20230240988A1, “FLUID GEL COMPOSITIONS” (The University of Birmingham, priority 2020, published 2023).

Experiments:
fibrin gel = assay: Matrix breakdown assay; format: biochemical; settings: 60° C.; images at various timepoints
Procedure: • Add proteinase K (10 mg) to PBS to make a total volume of 1 ml. • Mix well on a vortex mixer until dissolved.
• Add 0.9 ml of 3% v/v PEG-DA fluid gel prepared according to Example 5.3 to an Eppendorf. • To each gel add 0.1 ml of active in PBS. • Mix well using a vortex mixer. • Refrigerate for 24 hours before testing.
0.5 ml of fibrin gel (8.5 mg/ml) was formed in the wells of a 24 well plate. • 0.5 ml of PBS was added to each well. • 0.1 ml of fluid gel containing active was added to a trans-well insert and placed above the fibrin gel. • Samples were incubated at 60° C. to activate the proteinase K. • Images were taken at various timepoints and compared to (a) the control wells containing only fibrin gel+PBS; and (b) wells containing fibrin gel+proteinase k (no fluid gel carrier).

[1] = Release assay of active agents from PEG-DA fluid gel (trans-well, UV/Vis); format: physicochemical; settings: 3% v/v PEG-DA fluid gel (500 rpm), PBS 37° C., 5 hrs
Procedure: • Active amounts: […] • Standard concentrations of active in PBS were prepared. • Standards were pipetted into a quartz cuvette (1 mm pathlength). • […] spectroscopy was used to measure absorbance between 200 and 700 nm wavelength. • Curves were plotted and used to determine standard curves which were used to determine concentrations. • 0.5 ml PBS was added to the well of a 24 well plate. • The PBS was incubated at 37° C. to equilibrate. 0.1 ml of the fluid gel containing active was placed in a trans-well insert. • The trans-well insert was placed into a well containing PBS. • After a given time period the trans-well insert was removed and placed in a fresh well of PBS. • The release media was then removed and analysed using […] spectroscopy. Concentrations were derived from the standard curves and cumulative release plotted as a function of time.

B1: Proteinase K: extracellular matrix remodelling agent, proteinase (protein, UniProt P06873 106-384, looked up)
Proteinase K: AAQTNAPWGLARISSTSPGTSTYYYDESAGQGSCVYVIDTGIEASHPEFEGRAQMVKTYYYSSRDGNGHGTHCAGTVGSRTYGVAKKTQLFGVKVLDDNGSGQYSTIIAGMDFVASDKNNRNCPKGVVASLSLGGGYSSSVNSAAARLQSSGVMVAVAAGNNNADARNYSPASEPSVCTVGASDRYDRRSSFSNYGSVLDIFGPGTSILSTWIGGSTRSISGTSMATPHVAGLAAYLMTLGKTTAASACRYIADTANKGDLSNIPFGTVNLLAYNNYQA
Fibrin gel
  fibrin gel break down: faster
[1]
  release of active agent from fluid gel: able to release
